The labels stand for the following.
B1: PA2G4 (protein, UniProt Q9UQ80 2-394, looked up)
Proliferation-associated …: SGEDEQQEQTIAEDLVVTKYKMGGDIANRVLRSLVEASSSGVSVLSLCEKGDAMIMEETGKIFKKEKEMKKGIAFPTSISVNNCVCHFSPLKSDQDYILKEGDLVKIDLGVHVDGFIANVAHTFVVDVAQGTQVTGRKADVIKAAHLCAEAALRLVKPGNQNTQVTEAWNKVAHSFNCTPIEGMLSHQLKQHVIDGEKTIIQNPTDQQKKDHEKAEFEVHEVYAVDVLVSSGEGKAKDAGQRTTIYKRDPSKQYGLKMKTSRAFFSEVERRFDAMPFTLRAFEDEKKARMGVVECAKHELLQPFNVLYEKEGEFVAQFKFTVLLMPNGPMRITSGPFEPDLYKSEMEVQDAELKALLQSSASRKTQKKKKKKASKTAENATSGETLEENEAGD
B2: TRAM1 (protein, UniProt Q15629 1-374, looked up)
Translocating …: MAIRKKSTKSPPVLSHEFVLQNHADIVSCVAMVFLLGLMFEITAKASIIFVTLQYNVTLPATEEQATESVSLYYYGIKDLATVFFYMLVAIIIHAVIQEYMLDKINRRMHFSKTKHSKFNESGQLSAFYLFACVWGTFILISENYISDPTILWRAYPHNLMTFQMKFFYISQLAYWLHAFPELYFQKTKKEDIPRQLVYIGLYLFHIAGAYLLNLNHLGLVLLVLHYFVEFLFHISRLFYFSNEKYQKGFSLWAVLFVLGRLLTLILSVLTVGFGLARAENQKLDFSTGNFNVLAVRIAVLASICVTQAFMMWKFINFQLRRWREHSAFQAPAVKKKPTVTKGRSSKKGTENGVNGTLTSNVADSPRNKKEKSS
B3: EDC3 (protein, UniProt Q96F86 1-508, looked up)
Enhancer of mRNA-decapping …: MATDWLGSIVSINCGDSLGVYQGRVSAVDQVSQTISLTRPFHNGVKCLVPEVTFRAGDITELKILEIPGPGDNQHFGDLHQTELGPSGAGCQVGINQNGTGKFVKKPASSSSAPQNIPKRTDVKSQDVAVSPQQQQCSKSYVDRHMESLSQSKSFRRRHNSWSSSSRHPNQATPKKSGLKNGQMKNKDDECFGDDIEEIPDTDFDFEGNLALFDKAAVFEEIDTYERRSGTRSRGIPNERPTRYRHDENILESEPIVYRRIIVPHNVSKEFCTDSGLVVPSISYELHKKLLSVAEKHGLTLERRLEMTGVCASQMALTLLGGPNRLNPKNVHQRPTVALLCGPHVKGAQGISCGRHLANHDVQVILFLPNFVKMLESITNELSLFSKTQGQQVSSLKDLPTSPVDLVINCLDCPENVFLRDQPWYKAAVAWANQNRAPVLSIDPPVHEVEQGIDAKWSLALGLPLPLGEHAGRIYLCDIGIPQQVFQEVGINYHSPFGCKFVIPLHSA
B4: EIF4E2 (protein, UniProt O60573 1-245, looked up)
Eukaryotic translation …: MNNKFDALKDDDSGDHDQNEENSTQKDGEKEKTERDKNQSSSKRKAVVPGPAEHPLQYNYTFWYSRRTPGRPTSSQSYEQNIKQIGTFASVEQFWRFYSHMVRPGDLTGHSDFHLFKEGIKPMWEDDANKNGGKWIIRLRKGLASRCWENLILAMLGEQFMVGEEICGAVVSVRFQEDIISIWNKTASDQATTARIRDTLRRVLNLPPNTIMEYKTHTDSIKMPGRLGPQRLLFQNLWKPRLNVP
B5: RAE1 (protein, UniProt P78406 1-368, looked up)
mRNA export factor RAE1: MSLFGTTSGFGTSGTSMFGSATTDNHNPMKDIEVTSSPDDSIGCLSFSPPTLPGNFLIAGSWANDVRCWEVQDSGQTIPKAQQMHTGPVLDVCWSDDGSKVFTASCDKTAKMWDLSSNQAIQIAQHDAPVKTIHWIKAPNYSCVMTGSWDKTLKFWDTRSSNPMMVLQLPERCYCADVIYPMAVVATAERGLIVYQLENQPSEFRRIESPLKHQHRCVAIFKDKQNKPTGFALGSIEGRVAIHYINPPNPAKDNFTFKCHRSNGTNTSAPQDIYAVNGIAFHPVHGTLATVGSDGRFSFWDKDARTKLKTSEQLDQPISACCFNHNGNIFAYASSYDWSKGHEFYNPQKKNYIFLRNAAEELKPRNKK
B6: HOMER3 (protein, UniProt Q9NSC5 1-361, looked up)
Homer protein homolog 3: MSTAREQPIFSTRAHVFQIDPATKRNWIPAGKHALTVSYFYDATRNVYRIISIGGAKAIINSTVTPNMTFTKTSQKFGQWADSRANTVYGLGFASEQHLTQFAEKFQEVKEAARLAREKSQDGGELTSPALGLASHQVPPSPLVSANGPGEEKLFRSQSADAPGPTERERLKKMLSEGSVGEVQWEAEFFALQDSNNKLAGALREANAAAAQWRQQLEAQRAEAERLRQRVAELEAQAASEVTPTGEKEGLGQGQSLEQLEALVQTKDQEIQTLKSQTGGPREALEAAEREETQQKVQDLETRNAELEHQLRAMERSLEEARAERERARAEVGRAAQLLDVSLFELSELREGLARLAEAAP
B7: GLCCI1 (protein, UniProt Q86VQ1 1-547, looked up)
Glucocorticoid-induced …: MSTASSSSSSSSSQTPHPPSQRMRRSAAGSPPAVAAAGSGNGAGGGGGVGCAPAAGAGRLLQPIRATVPYQLLRGSQHSPTRPPVAAAAASLGSLPGPGAARGPSPSSPTPPAAAAPAEQAPRAKGRPRRSPESHRRSSSPERRSPGSPVCRADKAKSQQVRTSSTIRRTSSLDTITGPYLTGQWPRDPHVHYPSCMKDKATQTPSCWAEEGAEKRSHQRSASWGSADQLKEQIAKLRQQLQRSKQSSRHSKEKDRQSPLHGNHITISHTQATGSRSVPMPLSNISVPKSSVSRVPCNVEGISPELEKVFIKENNGKEEVSKPLDIPDGRRAPLPAHYRSSSTRSIDTQTPSVQERSSSCSSHSPCVSPFCPPESQDGSPCSTEDLLYDRDKDSGSSSPLPKYASSPKPNNSYMFKREPPEGCERVKVFEEMASRQPISAPLFSCPDKNKVNFIPTGSAFCPVKLLGPLLPASDLMLKNSPNSGQSSALATLTVEQLSSRVSFTSLSDDTSTAGSMEASVQQPSQQQQLLQELQGEDHISAQNYVII
B8: PAK4 (protein, UniProt O96013 1-591, looked up)
Serine/threonine-protein …: MFGKRKKRVEISAPSNFEHRVHTGFDQHEQKFTGLPRQWQSLIEESARRPKPLVDPACITSIQPGAPKTIVRGSKGAKDGALTLLLDEFENMSVTRSNSLRRDSPPPPARARQENGMPEEPATTARGGPGKAGSRGRFAGHSEAGGGSGDRRRAGPEKRPKSSREGSGGPQESSRDKRPLSGPDVGTPQPAGLASGAKLAAGRPFNTYPRADTDHPSRGAQGEPHDVAPNGPSAGGLAIPQSSSSSSRPPTRARGAPSPGVLGPHASEPQLAPPACTPAAPAVPGPPGPRSPQREPQRVSHEQFRAALQLVVDPGDPRSYLDNFIKIGEGSTGIVCIATVRSSGKLVAVKKMDLRKQQRRELLFNEVVIMRDYQHENVVEMYNSYLVGDELWVVMEFLEGGALTDIVTHTRMNEEQIAAVCLAVLQALSVLHAQGVIHRDIKSDSILLTHDGRVKLSDFGFCAQVSKEVPRRKSLVGTPYWMAPELISRLPYGPEVDIWSLGIMVIEMVDGEPPYFNEPPLKAMKMIRDNLPPRLKNLHKVSPSLKGFLDRLLVRDPAQRATAAELLKHPFLAKAGPPASIVPLMRQNRTR
B9: GIT1 (protein, UniProt Q9Y2X7 1-761, looked up)
ARF GTPase-activating protein …: MSRKGPRAEVCADCSAPDPGWASISRGVLVCDECCSVHRSLGRHISIVKHLRHSAWPPTLLQMVHTLASNGANSIWEHSLLDPAQVQSGRRKANPQDKVHPIKSEFIRAKYQMLAFVHKLPCRDDDGVTAKDLSKQLHSSVRTGNLETCLRLLSLGAQANFFHPEKGTTPLHVAAKAGQTLQAELLVVYGADPGSPDVNGRTPIDYARQAGHHELAERLVECQYELTDRLAFYLCGRKPDHKNGHYIIPQMADSLDLSELAKAAKKKLQALSNRLFEELAMDVYDEVDRRENDAVWLATQNHSTLVTERSAVPFLPVNPEYSATRNQGRQKLARFNAREFATLIIDILSEAKRRQQGKSLSSPTDNLELSLRSQSDLDDQHDYDSVASDEDTDQEPLRSTGATRSNRARSMDSSDLSDGAVTLQEYLELKKALATSEAKVQQLMKVNSSLSDELRRLQREIHKLQAENLQLRQPPGPVPTPPLPSERAEHTPMAPGGSTHRRDRQAFSMYEPGSALKPFGGPPGDELTTRLQPFHSTELEDDAIYSVHVPAGLYRIRKGVSASAVPFTPSSPLLSCSQEGSRHTSKLSRHGSGADSDYENTQSGDPLLGLEGKRFLELGKEEDFHPELESLDGDLDPGLPSTEDVILKTEQVTKNIQELLRAAQEFKHDSFVPCSEKIHLAVTEMASLFPKRPALEPVRSSLRLLNASAYRLQSECRKTVPPEPGAPVDFQLLTQQVIQCAYDIAKAAKQLVTITTREKKQ
B10: KIF23 (protein, UniProt Q02241 1-960, looked up)
Kinesin-like protein KIF23: MKSARAKTPRKPTVKKGSQTNLKDPVGVYCRVRPLGFPDQECCIEVINNTTVQLHTPEGYRLNRNGDYKETQYSFKQVFGTHTTQKELFDVVANPLVNDLIHGKNGLLFTYGVTGSGKTHTMTGSPGEGGLLPRCLDMIFNSIGSFQAKRYVFKSNDRNSMDIQCEVDALLERQKREAMPNPKTSSSKRQVDPEFADMITVQEFCKAEEVDEDSVYGVFVSYIEIYNNYIYDLLEEVPFDPIKPKPPQSKLLREDKNHNMYVAGCTEVEVKSTEEAFEVFWRGQKKRRIANTHLNRESSRSHSVFNIKLVQAPLDADGDNVLQEKEQITISQLSLVDLAGSERTNRTRAEGNRLREAGNINQSLMTLRTCMDVLRENQMYGTNKMVPYRDSKLTHLFKNYFDGEGKVRMIVCVNPKAEDYEENLQVMRFAEVTQEVEVARPVDKAICGLTPGRRYRNQPRGPVGNEPLVTDVVLQSFPPLPSCEILDINDEQTLPRLIEALEKRHNLRQMMIDEFNKQSNAFKALLQEFDNAVLSKENHMQGKLNEKEKMISGQKLEIERLEKKNKTLEYKIEILEKTTTIYEEDKRNLQQELETQNQKLQRQFSDKRRLEARLQGMVTETTMKWEKECERRVAAKQLEMQNKLWVKDEKLKQLKAIVTEPKTEKPERPSRERDREKVTQRSVSPSPVPLSSNYIAQISNGQQLMSQPQLHRRSNSCSSISVASCISEWEQKIPTYNTPLKVTSIARRRQQEPGQSKTCIVSDRRRGMYWTEGREVVPTFRNEIEIEEDHCGRLLFQPDQNAPPIRLRHRRSRSAGDRWVDHKPASNMQTETVMQPHVPHAITVSVANEKALAKCEKYMLTHQELASDGEIETKLIKGDIYKTRGGGQSVQFTDIETLKQESPNGSRKRRSSTVAPAQPDGAESEWTDVETRCSVAVEMRAGSQLGPGYQHHAQPKRKKP

The values below come from PMC7367873, “Dissecting the sequence determinants for dephosphorylation by the catalytic subunits of phosphatases PP1 and PP2A” (Nature Communications, 2020).

For the first test, the system named is GFP-14-3-3β and its binding proteins. Kind of test: GFP-14-3-3β co-IP with LC-MS/MS label-free quantification, untreated versus PP1c-treated. On the set-up: species or system human. Particulars: log2 difference; pairwise comparison PP1 vs untreated, label-free quantification, 3 replicates each.
For B1, the “Difference (log2), PP1 vs untreated” value stood at 1.519.
B2: the “Difference (log2), PP1 vs untreated” value is reported as 1.521.

The test is the same for the next values; noted with them: pairwise comparison PP1 vs untreated, student's t-test; 3 replicates each; LC-MS/MS label-free quantification.
For the molecule B3, the “Difference (log2), PP1 vs untreated” value is recorded as -4.243 log2.
In the case of B4, the “Difference (log2), PP1 vs untreated” value is reported as -4.306 log2.
Same read-out and setting: under B5 stands -4.214 log2.
In the case of B6, the “Difference (log2), PP1 vs untreated” value is -4.512 log2.
On to B7, for which the “Difference (log2), PP1 vs untreated” value is -4.246 log2.
Regarding B8, the “Difference (log2), PP1 vs untreated” value is given as -4.365 log2.
On the same count and under the same terms, under B9 stands -4.417 log2; under B10, -4.537 log2.

For the next test, the system named is GFP-14-3-3β. Kind of test: GFP-14-3-3β co-IP with LC-MS/MS, untreated GFP-14-3-3β versus GFP control (14-3-3 interactome). Type of test: binding, human. Particulars: log2 difference; pairwise comparison untreated vs GFP, label-free quantification, 3 replicates each.
Consider B1, for which the “Difference (log2), untreated vs GFP” value was 0.3875.
For the molecule B2, the “Difference (log2), untreated vs GFP” value is given as 0.1201.

Still in this test, the particulars now being: pairwise comparison untreated GFP-14-3-3β vs GFP, student's t-test; 3 replicates each; LC-MS/MS label-free quantification.
For the molecule B3, the “Difference (log2), untreated vs GFP” value worked out at 4.9273 log2.
With B4, the “Difference (log2), untreated vs GFP” value stood at 3.4457 log2.
The same measure, in the same setting: under B5 stands 3.4084 log2; under B6, 5.445 log2.
Turning to B7, the “Difference (log2), untreated vs GFP” value is listed as 4.69 log2.
For the molecule B8, the “Difference (log2), untreated vs GFP” value is 5.767 log2.
For B9, the “Difference (log2), untreated vs GFP” value turned out to be 5.06 log2.
With B10, the “Difference (log2), untreated vs GFP” value is recorded as 6.386 log2.
